{"source": "paper doi:10.1101/667956", "about": "(bioRxiv, 2019)", "proteins": {"B1": {"name": "synthetic peptide of the Arc oligomerization region (residues 99-132) (peptide)", "peptide": "QETIANLERWVKREMHVWREVFYRLERWADRLES"}, "B2": {"name": "purified wild-type human Arc (untagged) (natural protein)", "chain": "MELDHRTSGGLHAYPGPRGGQVAKPNVILQIGKCRAEMLEHVRRTHRHLLAEVSKQVERELKGLHRSVGKLESNLDGYVPTSDSQRWKKSIKACLCRCQETIANLERWVKREMHVWREVFYRLERWADRLESTGGKYPVGSESARHTVSVGVGGPESYCHEADGYDYTVSPYAITPPPAAGELPGQEPAEAQQYQPWVPGEDGQPSPGVDTQIFEDPREFLSHLEEYLRQVGGSEEYWLSQIQNHMNGPAKKWWEFKQGSVKNWVEFKKEFLQYSEGTLSREAIQRELDLPQKQGEPLDQFLWRKRDLYQTLYVDADEEEIIQYVVGTLQPKLKRFLRHPLPKTLEQLIQRGMEVQDDLEQAAEPAGPHLPVEDEAETLTPAPNSESVASDRTQPE"}, "B3": {"name": "Arc^s113-119A with an N-terminal MBP fusion tag (natural protein)", "chain": "B2 chain with M113A, H114A, V115A, W116A, R117A, E118A, V119A"}, "B4": {"name": "purified Arc^s113-119A (untagged) (natural protein)", "chain": "B2 chain with M113A, H114A, V115A, W116A, R117A, E118A, V119A"}, "B5": {"name": "mTurquoise2-fused full-length Arc (1-396), wild type (natural protein)", "chain": "MELDHMTTGGLHAYPAPRGGPAAKPNVILQIGKCRAEMLEHVRRTHRHLLTEVSKQVERELKGLHRSVGKLENNLDGYVPTGDSQRWKKSIKACLCRCQETIANLERWVKREMHVWREVFYRLERWADRLESMGGKYPVGSEPARHTVSVGVGGPEPYCQEADGYDYTVSPYAITPPPAAGELPEQESVGAQQYQSWVPGEDGQPSPGVDTQIFEDPREFLSHLEEYLRQVGGSEEYWLSQIQNHMNGPAKKWWEFKQGSVKNWVEFKKEFLQYSEGTLSREAIQRELDLPQKQGEPLDQFLWRKRDLYQTLYVDAEEEEIIQYVVGTLQPKFKRFLRHPLPKTLEQLIQRGMEVQDGLEQAAEPSVTPLPTEDETEALTPALTSESVASDRTQPE"}, "B6": {"name": "recombinantly purified rat Arc^s113-119A with an N-terminal SNAP tag and a C-terminal AviTag (natural protein)", "chain": "B5 chain with M113A, H114A, V115A, W116A, R117A, E118A, V119A", "modifications": "AlexaFluor488 SNAP substrate on the SNAP tag; C-terminally biotinylated (AviTag)"}, "B7": {"name": "mTq2-fused full-length Arc^s113-119A (natural protein)", "chain": "B5 chain with M113A, H114A, V115A, W116A, R117A, E118A, V119A"}, "B8": {"name": "mTq2-fused full-length Arc^s92-98A (natural protein)", "chain": "B5 chain with K92A, C94A, L95A, C96A, R97A, C98A"}}, "key": {"SEC-MALS [1]": {"target": "the molecule itself", "assay": "SEC-MALS"}, "DLS": {"target": "the molecule itself", "assay": "DLS"}, "SAXS": {"target": "the molecule itself", "assay": "SAXS"}, "SEC-MALS [2]": {"target": "the molecule itself", "assay": "SEC-MALS", "remark": "listed apart in the source"}, "cross-linking": {"target": "the molecule itself", "assay": "cross-linking"}, "[3]": {"target": "the molecule itself", "assay": "single-molecule TIRF photobleaching"}}, "note": "Residue numbers refer to the chain shown, from its start. Several values for one entry are separate records, joined by “and”; a condition that tells them apart may be missing. Equal entries are not always repeated.", "data": [{"protein": "B1", "values": [{"measurement": "stoichiometry N", "setting": "SEC-MALS [1]", "result": 6}]}, {"protein": "B2", "values": [{"measurement": "stoichiometry N", "setting": "DLS", "result": "40 to 55", "unit": "Arc molecules per capsid"}]}, {"protein": "B3", "values": [{"measurement": "stoichiometry N", "setting": "SAXS", "result": 2}]}, {"protein": "B4", "values": [{"measurement": "stoichiometry N", "setting": "SEC-MALS [2]", "result": 2}]}, {"protein": "B5", "values": [{"measurement": "stoichiometry N", "setting": "cross-linking", "result": "2 and 3"}]}, {"protein": "B6", "values": [{"measurement": "binding result", "setting": "[3]", "result": "binds"}]}, {"protein": "B7", "values": [{"measurement": "stoichiometry N", "setting": "cross-linking", "result": 2}]}, {"protein": "B8", "values": [{"measurement": "stoichiometry N", "setting": "cross-linking", "result": 2}]}]}
